Measured values: doi:10.1101/2023.12.21.572878
Values joined by “and” are separate entries in the source; they are usually repeats but may differ in a detail not shown here. Equal entries are not always repeated.

Columns and labels:
[1] = molecular target: Dimeric kinesin K401-BIO-H6 (Drosophila | E. coli) (UniProt P17210); test: mass photometry
Streptavidin = Streptavidin (UniProt P22629); test: mass photometry

stoichiometry N [1]: 2
stoichiometry N (kinesin dimers per streptavidin tetramer) (Streptavidin): 1 and 2 and 3
Substance: Dimeric kinesin K401-BIO-H6 (from UniProt P17210 1-401)
